Assay results from paper doi:10.1101/755504 (bioRxiv, 2019).

Biological target: T1, His-D6PK (Arabidopsis thaliana, UniProt Q9FG74 1-498)
T1 sequence (looked up): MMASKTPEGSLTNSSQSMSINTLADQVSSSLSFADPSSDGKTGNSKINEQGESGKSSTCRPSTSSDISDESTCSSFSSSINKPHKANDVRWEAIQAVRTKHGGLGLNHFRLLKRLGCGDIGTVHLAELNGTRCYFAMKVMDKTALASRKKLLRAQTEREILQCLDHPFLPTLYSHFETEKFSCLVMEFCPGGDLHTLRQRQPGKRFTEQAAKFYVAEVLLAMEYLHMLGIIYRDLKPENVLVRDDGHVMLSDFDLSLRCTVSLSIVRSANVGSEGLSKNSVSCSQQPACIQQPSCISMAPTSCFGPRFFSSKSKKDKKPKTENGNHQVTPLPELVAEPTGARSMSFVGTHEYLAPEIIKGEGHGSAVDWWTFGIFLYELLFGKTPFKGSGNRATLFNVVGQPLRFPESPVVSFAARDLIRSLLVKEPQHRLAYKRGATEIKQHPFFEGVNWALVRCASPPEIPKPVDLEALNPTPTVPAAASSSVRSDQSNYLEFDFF
Test: pull-down

- binding result: binds
B1: GST-PDK1.1 (enzyme, Arabidopsis thaliana, UniProt Q9XF67 1-491, looked up)
chain: MLAMEKEFDSKLVLQGNSSNGANVSRSKSFSFKAPQENFTSHDFEFGKIYGVGSYSKVVRAKKKETGTVYALKIMDKKFITKENKTAYVKLERIVLDQLEHPGIIKLYFTFQDTSSLYMALESCEGGELFDQITRKGRLSEDEARFYTAEVVDALEYIHSMGLIHRDIKPENLLLTSDGHIKIADFGSVKPMQDSQITVLPNAASDDKACTFVGTAAYVPPEVLNSSPATFGNDLWALGCTLYQMLSGTSPFKDASEWLIFQRIIARDIKFPNHFSEAARDLIDRLLDTEPSRRPGAGSEGYVALKRHPFFNGVDWKNLRSQTPPKLAPDPASQTASPERDDTHGSPWNLTHIGDSLATQNEGHSAPPTSSESSGSITRLASIDSFDSRWQQFLEPGESVLMISAVKKLQKITSKKVQLILTNKPKLIYVDPSKLVVKGNIIWSDNSNDLNVVVTSPSHFKICTPKKVLSFEDAKQRASVWKKAIETLQNR
